Tested on: alpha-1 antitrypsin (AAT) in the serum of wild-type C57BL/6 mice

## neutrophil elastase
  relative neutrophil elastase activity (colorimetric kinetics of substrate degradation) after incubation with serum: serum from wild-type male and female C57BL/6 mice exhibited a high capacity to inhibit neutrophil elastase, serum from the three founders showed a reduced capacity to do so
